Data on three molecules can be found in paper PMC2754608, “Toll-Like Receptor 4 Decoy, TOY, Attenuates Gram-Negative Bacterial Sepsis” (PLoS ONE, 2009).

B1: myeloid differentiation protein-2 (MD-2) (natural protein, human, UniProt Q9Y6Y9 19-160, looked up)
chain: QKQYWVCNSSDASISYTYCDKMQYPISINVNPCIELKRSKGLLHIFYIPRRDLKQLYFNLYITVNTMNLPKRKEVICRGSDDDYSFCRALKGETVNTTISFSFKGIKFSKGKYKCVVEAISGSPEEMLFCLEFVILHQPNSN
notes: also called hMD-2

Assay [1] deals with T1, TLR4 full-length ectodomain fused to IgG-Fc (TFE) (human, UniProt O00206 27-631).
T1 construct: Toll-like receptor 4 (TLR4), human, full-length ectodomain, amino acid residues 27-631; Disulfide-linked dimer through the Fc domain (non-reducing SDS-PAGE); N-glycosylated; source: recombinant CHO cells (dhfr-deficient, MTX amplification), secreted, purified (Protein-A sepharose); not shown: Fc (human IgG1), C-terminal, kept
The assay can be described thus: SPR; BIAcore 3000; TFE, TOY3 or TOY8 (1 µg) amine-coupled (NHS/EDC) on a CM5 chip at about 2,000 RU; BSA on a control portion of the chip; recombinant MD-2 flowed over; nonlinear curve fitting with BIAEVALUATION
The conditions noted are these: both partners purified.

In assay [2] the target is B1. The assay is described as above. The conditions noted are these: both partners purified.

In the case of B1, the Kd in assay [1] is about 81 nM.

B2: TLR4 decoy receptor-8 (TOY8) (Fc fusion)
chain: EPCVEVVPNITYQCMELNFYKIPDNLPFSTKNLDLSFNPLRHLGSYSFFSFPELQVLDLSRCEIQTIEDGAYQSLSHLSTLILTGNPIQSLALGAFSGLSSLQKLVAVETNLASLENFPIGHLKTLKELNVAHNLIQSFKLPEYFSNLTNLEHLDLSSNKIQSIYCTDLRVLHQMPLLNLSLDLSLNPMNFIQPGAFKEIRLHKLTLRNNFDSLNVMKTCIQGLAGLEVHRLVLGEFRNEGNLEKFDKSALEGLCNLTIEEFRLAYLDYYLDDIIDLFNCLTNVSSFSLVSVTIERVKDFSYNFGWQHLELVNCKFGQFPTLKLKSLKRLTFTSNKGGNAFSEVDLPSLEFLDLSRNGLSFKGCCSQSDFGTTSLKYLDLSFNGVITMSSNFLGLEQLEHLDFQHSNLKQMSEFSVFLSLRNLIYLDISHTHTRVAFNGIFNGLSSLEVLKMAGNSFQENFLPDIFTELRNLTFLDLSQCQLEQLSPTAFNSLSSLQVLNMASNQLKSVPDGIFDRLTSLQKIWLHTNPWDCSCPRIDYLSRWLNKNSQKEQGSAKCSGSGKPVRSIICP
modifications: N-glycosylated (CHO). TLR4 27-527 limits are printed; VLRB.61 fragment limits are only in a figure, so taken from the TV8 hybrid crystal construct (PDB 2Z63, recalled from memory). Hagfish species …
Consider B2, for which, in assay [2], the Kd was about 56 nM.

B3: TLR4 decoy receptor-3 (TOY3) (Fc fusion)
chain: EPCVEVVPNITYQCMELNFYKIPDNLPFSTKNLDLSFNPLRHLGSYSFFSFPELQVLDLSRCEIQTIEDGAYQSLSHLSTLILTGNPIQSLALGAFSGLSSLQKLVAVETNLASLENFPIGHLKTLKELNVAHNLIQSFKLPEYFSNLTNLEHLDLSSNKIQSIYCTDLRVLHQMPLLNLSLDLSLNPMNFIQPGAFKEIRLKELALDTNQLKSVPDGIFDRLTSLQKIWLHTNPWDCSCPRIDYLSRWLNKNSQKEQGSAKCSGSGKPVRSIICP
modifications: N-glycosylated (CHO). TLR4 27-227 limits are printed; VLRB.61 fragment limits are only in a figure, so taken from the TV3 hybrid crystal construct (PDB 2Z62, recalled from memory). Hagfish species …
As to B3, the Kd in assay [2] was about 76 nM.
